The test addresses T1, GST-KBP (kinesin-binding protein) (human, UniProt Q96EK5 1-621).
T1 sequence (looked up): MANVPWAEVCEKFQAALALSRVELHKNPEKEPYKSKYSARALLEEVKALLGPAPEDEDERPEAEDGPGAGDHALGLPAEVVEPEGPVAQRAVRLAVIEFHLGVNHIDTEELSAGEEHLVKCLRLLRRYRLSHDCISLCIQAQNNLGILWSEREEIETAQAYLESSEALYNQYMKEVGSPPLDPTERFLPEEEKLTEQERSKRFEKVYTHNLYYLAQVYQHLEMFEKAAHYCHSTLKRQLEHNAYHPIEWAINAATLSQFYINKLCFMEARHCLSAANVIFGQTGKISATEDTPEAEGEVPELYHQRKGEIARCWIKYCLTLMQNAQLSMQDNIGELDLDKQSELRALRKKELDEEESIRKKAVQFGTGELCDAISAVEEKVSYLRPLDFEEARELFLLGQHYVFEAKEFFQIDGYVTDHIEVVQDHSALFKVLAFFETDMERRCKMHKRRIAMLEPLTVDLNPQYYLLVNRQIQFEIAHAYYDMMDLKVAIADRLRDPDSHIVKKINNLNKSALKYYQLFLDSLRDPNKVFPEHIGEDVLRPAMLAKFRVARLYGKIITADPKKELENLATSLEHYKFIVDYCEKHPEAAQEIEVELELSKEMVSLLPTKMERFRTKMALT
Kind of test: pull-down.

Experimental findings from paper PMC6446846 (The Journal of Cell Biology, 2019) are described below.

B1: KIF18A-N480-GFP-His6 (domain or fragment, human, UniProt Q8NI77 1-480, looked up)
chain: MSVTEEDLCHHMKVVVRVRPENTKEKAAGFHKVVHVVDKHILVFDPKQEEVSFFHGKKTTNQNVIKKQNKDLKFVFDAVFDETSTQSEVFEHTTKPILRSFLNGYNCTVLAYGATGAGKTHTMLGSADEPGVMYLTMLHLYKCMDEIKEEKICSTAVSYLEVYNEQIRDLLVNSGPLAVREDTQKGVVVHGLTLHQPKSSEEILHLLDNGNKNRTQHPTDMNATSSRSHAVFQIYLRQQDKTASINQNVRIAKMSLIDLAGSERASTSGAKGTRFVEGTNINRSLLALGNVINALADSKRKNQHIPYRNSKLTRLLKDSLGGNCQTIMIAAVSPSSVFYDDTYNTLKYANRAKDIKSSLKSNVLNVNNHITQYVKICNEQKAEILLLKEKLKAYEEQKAFTNENDQAKLMISNPQEKEIERFQEILNCLFQNREEIRQEYLKLEMLLKENELKSFYQQQCHKQIEMMCSEDKVEKATGKR
On to B1, for which the binding result is recorded as “binds”.

B2: His6-KIF15-N420 (domain or fragment, human, UniProt Q9NS87 1-420, looked up)
chain: MAPGCKTELRSVTNGQSNQPSNEGDAIKVFVRIRPPAERSGSADGEQNLCLSVLSSTSLRLHSNPEPKTFTFDHVADVDTTQESVFATVAKSIVESCMSGYNGTIFAYGQTGSGKTFTMMGPSESDNFSHNLRGVIPRSFEYLFSLIDREKEKAGAGKSFLCKCSFIEIYNEQIYDLLDSASAGLYLREHIKKGVFVVGAVEQVVTSAAEAYQVLSGGWRNRRVASTSMNRESSRSHAVFTITIESMEKSNEIVNIRTSLLNLVDLAGSERQKDTHAEGMRLKEAGNINRSLSCLGQVITALVDVGNGKQRHVCYRDSKLTFLLRDSLGGNAKTAIIANVHPGSRCFGETLSTLNFAQRAKLIKNKAVVNEDTQGNVSQLQAEVKRLKEQLAELASGQTPPESFLTRDKKKTNYMEYFQE
In the case of B2, the binding result is recorded as “binds”.
